Source: patent US20050239203, “Regulation of endogenous gene expression in cells using zinc finger proteins” (published 2005)

What was measured:
Zif268 (Mus musculus) = test: EMSA; settings: MBP fusion, same conditions; target sequence not given
[1] = test system: SP-1 zinc finger domain (Homo sapiens); test: EMSA; settings: MBP fusion, same conditions; target sequence not given
VEGF1-KRAB = biological target: T1, VEGF1-KRAB (synthetic, UniProt P08047 SEQ:1-99); test: cell_activity; endogenous VEGF ELISA, DFX-treated 293 cells; settings: tags: SV40 NLS, KRAB (KOX1), FLAG
T1 chain: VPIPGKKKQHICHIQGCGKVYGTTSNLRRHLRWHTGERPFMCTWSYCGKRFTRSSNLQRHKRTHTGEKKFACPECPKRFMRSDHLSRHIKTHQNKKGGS
Experimental: Eighteen hours post transfection, the 293 cells were induced by treatment with 100 μM DFX (desferrioxamine), resulting in a rapid and lasting transcriptional activation of the VEGF gene and also in a gradual increase in VEGF mRNA stability (Ikeda et al., J. Biol. Chem. 270:19761-19766 (1995)). Under routine culture conditions, 293 cells secrete a low level of VEGF in the culture media. The cells were allowed to incubate an additional 24 hours before the supernatants were collected for determination of VEGF levels by an ELISA assay.

VEGF3a/1 six-finger ZFP [2] = biological target: T2, VEGF3a/1 six-finger ZFP (synthetic); test: EMSA; apparent Kd, room temperature, 25 uM ZnCl2, poly dI-dC; settings: tags: N-terminal MBP fusion; label: 5'-32P
T2 chain: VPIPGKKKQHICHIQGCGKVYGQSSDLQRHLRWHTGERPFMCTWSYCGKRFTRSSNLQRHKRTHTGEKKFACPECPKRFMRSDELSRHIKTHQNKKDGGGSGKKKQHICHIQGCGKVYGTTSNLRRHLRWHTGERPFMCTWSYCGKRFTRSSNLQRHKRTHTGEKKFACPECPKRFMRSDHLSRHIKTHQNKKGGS
Experimental: (§1) For the EMSA studies, 20 μl binding reactions contained 10 fmole (0.5 nM) 5′-³²P-labeled double-stranded target DNA, 35 mM Tris HCl (pH 7.8), 100 mM KCl, 1 mM MgCl₂, 5 mM dithiothreitol, 10% glycerol, 20 μg/ml poly dI-dC, 200 μg/ml bovine serum albumin, and 25 μM ZnCl₂. Protein was added as one fifth volume from a 3-fold dilution series. Binding was allowed to proceed for 60 min at either room temperature or 37° C. Polyacrylamide gel electrophoresis was carried out at room temperature or 37° C. using precast 10% or 10-20% Tris-HCl gels (BioRad) and standard Tris-Glycine runmning buffer. […] Thus, the 18-bp binding ZFP bound with high affinity to its target site. In a parallel experiment, VEGF1 protein was tested against its target using the oligonucleotides described in Example I, yielding an apparent Kd of approximately 2.5 nM.

VEGF3a/1 six-finger ZFP [3] = biological target: T2, VEGF3a/1 six-finger ZFP; test: EMSA; apparent Kd, 37 C; complex half-life more than 10x longer than VEGF1; settings: tags: N-terminal MBP fusion; label: 5'-32P
Experimental: as §1
The apparent Kd is a useful measure of the affinity of a protein for its DNA target. However, for a DNA binding site either in vitro or in vivo, its occupancy is determined to a large extent by the off-rate of the DNA-binding protein. The conditions for EMSA were as described above; binding and electrophoresis were performed at 37° C. […] Thus, under these in vitro conditions, the occupancy of the target site is much higher for the 18-bp binding protein than for the 9-bp binding protein.

Molecule: Zif268 target (sequence not stated)
- Kd (Zif268 (Mus musculus)): 60 nM

Molecule: SP-1 target (sequence not stated)
- Kd [1]: 65 nM

B1: endogenous VEGF promoter target region (dsDNA)
DNA 1: AGCGGGGAGGATCGCGGAGGCTTGG
DNA 2: CCAAGCCTCCGCGATCCTCCCCGCT
- activity (VEGF1-KRAB): 2 fold repression

B2: JVF9/JVF10 VEGF 18-bp target (dsDNA)
DNA 1: AGCGAGCGGGGAGGATCGCGGAGGCTTGGGGCAGCCGGGTAG
DNA 2: CGCTCTACCCGGCTGCCCCAAGCCTCCGCGATCCTCCCCGCT
- Kd (VEGF3a/1 six-finger ZFP [2]): ~1.5 nM
- Kd (VEGF3a/1 six-finger ZFP [3]): ~9 nM
